Numbering of substitutions follows the chain as printed. Numbers in names are those of the source. Ends that are not written are not given here.
B1: Fab fragment of DPR Ab-1 (Fab, V domains shown)
VH: QVQLVESGGGVVQPGRSLRLSCAASGFTFSNHAMHWVRQAPGKGLEWVAVISYDGENTYYADSIEGRFTISRDNFKNTLFLQMYSLTADDTAMYFCARGGRRGHFTSYYLDYWGQGTLVTVSS
VL: DIQMTQSPSSLSASVGDRVTITCRASQNIDKYLNWYQQIPGKAPKLLIYAASSLHSGVPSRFSGSGSGTDFSLTISSLQPEDFAIYYCQQSYSSFRTFGQGTKLEIK
notes: also called DPR Ab-1 Fab
B2: NI-308.5J10 recombinant human-derived monoclonal antibody (human IgG1, kappa) (antibody, V domains shown)
VH: SETLSLTYTVLGGSVSDYYWSCIRQPAGKGLEWIGRTYTNGKTTYTYNPSLESRLSLSIDTSMNQFSLKLTSVTAADTAVYYCARWGAVTGDYYYGMDVWGPGTLVTVSS
VL: EIVLTQSPLSLSVTPGEPASISCRSPRSLLHTNGYTYLDWYLQRPGQSPQLLIFLASNRASGVPDRFSGSGSGTNFTLRISGVEADDVGVYYCMQGLQPSWTFGQGTKVEIKR
notes: Full hIgG1 heavy chain (plasmid SDD151) and kappa light chain (plasmid SDD152); also called 5J10 hIgG1
B3: NI-308.5J10 variant WT-Fab-6His / N75D light chain (Fab, V domains shown)
VH: B2 VH
VL: B2 VL with N75D
notes: Plasmids SDD178 and SDD177; also called LC N75D Fab; 5J10-LC N75D Fab
B4: NI-308.5J10 variant G55T-Fab-6His / N75D light chain (Fab, V domains shown)
VH: B2 VH with G41T
VL: B2 VL with N75D
notes: Plasmids SDD182 and SDD177; also called HC G55T/LC N75D Fab; 5J10-LC N75D, HC G55T Fab
B5: NI-308.5J10 variant N54T-Fab-6His / N75D light chain (Fab, V domains shown)
VH: B2 VH with N40T
VL: B2 VL with N75D
notes: Plasmids SDD180 and SDD177; also called HC N54T/LC N75D Fab; 5J10-LC N75D, HC N54T Fab
B6: NI-308.5J10 variant G55S-Fab-6His / N75D light chain (Fab, V domains shown)
VH: B2 VH with G41S
VL: B2 VL with N75D
notes: Plasmids SDD181 and SDD177; also called HC G55S/LC N75D Fab; 5J10-LC N75D, HC G55S Fab
B7: NI-308.5J10 variant N54S-Fab-6His / N75D light chain (Fab, V domains shown)
VH: B2 VH with N40S
VL: B2 VL with N75D
notes: Plasmids SDD179 and SDD177; also called HC N54S/LC N75D Fab; 5J10-LC N75D, HC N54S Fab
B8: NI-308.5J10 WT Fab-6His (WT-Fab-6His / WT light chain) (Fab, V domains shown)
VH: B2 VH
VL: B2 VL
notes: The heavy chain is VH-CH1 with a C-terminal hexahistidine tag; also called 5J10 Fab

Experiments:
(GA)8 repeats = molecular target: T1, (GA)8 repeats; experiment: SPR, inset: Fab bound (RU) plotted against [Fab] from 0 to 20000 nM with a fitted saturation curve
T1 construct: also called poly-(GA)8; GA (e.g., poly(GA))
T1 peptide: GAGAGAGAGAGAGAGA

[1] = molecular target: T2, BSA-coupled (GA)15 dipeptide repeat protein peptide (H-CHHHHHH(GA)15-OH conjugated via SMCC to bovine serum … (bovine, UniProt P02769 25-607, conjugated via a bifunctional linker (SMCC) to bovine serum albumin (BSA))); experiment: indirect ELISA, coated BSA-coupled peptide
T2 construct: also called BSA-coupled peptide; BSA-conjugated poly-GA
Description: (§1) In brief, poly-GA dipeptide repeat proteins were synthesized and purified by Schafer-N(Copenhagen, Denmark): (GA)₁₅: H-CHHHHHH(GA)₁₅-OH (SEQ ID NO: 61). Poly-GA DPR protein peptides were then conjugated via a bifunctional linker (SMCC) to bovine serum albumin (BSA). 96-well microplates (Corning Incorporated, Corning, USA) were coated with poly-GA BSA-coupled or uncoupled dipeptide repeat protein peptides at a concentration of 5 μg/ml in coating buffer (15 mM Na₂CO₃, 35 mM NaHCO₃, pH 9.42). Non-specific binding sites were blocked for 1 h at RT with PBS/0.1% Tween®-20 containing 2% BSA (Sigma-Aldrich, Buchs, Switzerland). […] Binding was determined by measurement of HRP activity in a standard colorimetric assay.
(§2) EC₅₀ values were estimated by non-linear regression using GraphPad Prism software (San Diego, USA).

[2] = molecular target: T3, synthesized dipeptide repeat protein (GA)15: H-CHHHHHH(GA)15-OH; experiment: BLI (Octet RED96), peptide immobilised on AR2G sensor, IgG as analyte, 1:1 model
T3 construct: also called poly-GA DPR peptide; uncoupled (GA)15 peptide
T3 peptide: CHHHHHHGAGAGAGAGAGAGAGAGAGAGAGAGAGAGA
Description: Poly-GA dipeptide repeat protein peptides were synthesized and purified by Schafer-N (Copenhagen, Denmark): (GA)₁₅: H-CHHHHHH(GA)₁₅-OH (SEQ ID NO: 61). Pure, lyophilized (GA)₁₅ (SEQ ID NO: 66) was dissolved in DMSO (Sigma-Aldrich, Buchs, Switzerland) at a concentration of 10 mg/ml and stored at −20° C. In brief, bio-layer interferometry experiments were performed on Octet RED96 instrument (Pall ForteBio LLC, Fremont, USA). Octet amine-reactive (AR2G) biosensors were used for covalent immobilization of (GA)₁₅ (SEQ ID NO: 66) dipeptide repeat protein peptides. AR2G biosensors were activated with EDC (1-Ethyl-3-[3-dimethylaminopropyl] carbodiimide hydrochloride; 20 mM in water; Pall ForteBio LLC, Fremont, USA) and s-NHS (N-hydroxysulfosuccinimide; 10 mM in water; Pall ForteBio LLC, Fremont, USA) for 300 s, followed by loading of the biosensor surface with 5 μg/ml of (GA)₁₅ (SEQ ID NO: 66) peptides in 10 mM acetate buffer pH 6 (Pall ForteBio LLC, Fremont, USA) for 600 s. […] Antibody dissociation was evaluated in kinetics buffer for 800 s. All binding data were referenced by collecting data with a PBS only reference. Data analysis was performed by using the Octet system software (Pall ForteBio LLC, Fremont, USA) with simultaneous Kₐ/Kd global fitting with 1:1 interaction model. BLI sensorgrams were drawn with the Prism software from GraphPad (San Diego, USA) upon fitting.

[3] = molecular target: T3, synthesized dipeptide repeat protein …; experiment: indirect ELISA, coated uncoupled peptide
Description: as §1, §2

[4] = molecular target: T4, synthesized dipeptide repeat protein (GA)10: H-(GA)10HHHHHH-NH2 (C-terminal amide (-NH2)); experiment: indirect ELISA, peptide coated at 50 µg/ml
T4 peptide: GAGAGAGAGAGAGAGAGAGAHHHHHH
Excerpt: (§3) In brief, Dipeptide repeat protein peptides were synthesized and purified by Schafer-N(Copenhagen, Denmark): GA₂₀: H-(GA)₂₀HHHHHH-NH₂ (SEQ ID NO: 71); GA₁₀: H-(GA)₁₀HHHHHH-NH₂ (SEQ ID NO: 72); GA₆: H-(GA)₆HHHHHH-NH₂ (SEQ ID NO: 73); GA₅: H-(GA)₅HHHHHH-NH₂ (SEQ ID NO: 74); GA₄: H-(GA)₄HHHHHH-NH₂ (SEQ ID NO: 75); GA₃: H-(GA)₃HHHHHH-NH₂ (SEQ ID NO: 76); GA₂: H-(GA)₂HHHHHH-NH₂ (SEQ ID NO: 77). 96-well microplates (Corning Incorporated, Corning, USA) were coated with dipeptide repeat protein peptides at a concentration of 50 μg/ml in coating buffer (15 mM Na₂CO₃, 35 mM NaHCO₃, pH 9.42). Non-specific binding sites were blocked for 1 h at RT with PBS/0.1% Tween®-20 containing 2% BSA (Sigma-Aldrich, Buchs, Switzerland). […] Binding was determined by measurement of HRP activity in a standard colorimetric assay. EC₅₀ values were estimated by non-linear regression using GraphPad Prism software (San Diego, USA).
(§4) High affinity binding was detected for poly-GA DPRs harboring 10 (SEQ ID NO: 79) or 20 (GA)-repeats (SEQ ID NO: 82), reflected in an EC₅₀ in the subnanomolar range (Table 5, FIG. 6).

[5] = molecular target: T5, synthesized dipeptide repeat protein (GA)6: H-(GA)6HHHHHH-NH2; experiment: indirect ELISA, peptide coated at 50 µg/ml
T5 peptide: H-GAGAGAGAGAGAHHHHHH-NH2
Excerpt: as §3, §4

[6] = molecular target: T6, synthesized dipeptide repeat protein (GA)20: H-(GA)20HHHHHH-NH2 (C-terminal amide (-NH2)); experiment: indirect ELISA, peptide coated at 50 µg/ml
T6 peptide: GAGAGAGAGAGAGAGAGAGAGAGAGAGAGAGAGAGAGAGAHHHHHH
Excerpt: as §3, §4

[7] = molecular target: T3, synthesized dipeptide repeat protein …; experiment: indirect ELISA, coated peptide
Description: In brief, dipeptide repeat proteins were synthesized and purified by Schafer-N(Copenhagen, Denmark): (GA)₁₅: H-CHHHHHH(GA)₁₅-OH (SEQ ID NO: 61); (GP)₁₅: H-C(GP)₁₅-OH (SEQ ID NO: 62); (GR)₁₅: H-C(GR)₁₅-OH (SEQ ID NO: 63); (PA)₁₅: H-C(PA)₁₅-OH (SEQ ID NO: 64); (PR)₁₅: H—C(PR)₁₅-OH (SEQ ID NO: 65). 96-well microplates (Corning Incorporated, Corning, USA) were coated with dipeptide repeat protein peptides at a concentration of either 5 μg/ml or 20 μg/ml in coating buffer (15 mM Na₂CO₃, 35 mM NaHCO₃, pH 9.42). Non-specific binding sites were blocked for 1 h at RT with PBS/0.1% Tween®-20 containing 2% BSA (Sigma-Aldrich, Buchs, Switzerland). […] Binding was determined by measurement of HRP activity in a standard colorimetric assay.
as §2

synthetic biotin-8xGA = molecular target: T7, synthetic biotin-8xGA (also: biotin, position not given here); experiment: SPR (Biacore T200), biotin-8xGA captured on Biotin CAPture chip, Fab as analyte, 1:1 model
T7 construct: also called synthetic 8×GA; poly-(GA)8 peptide
T7 peptide: GAGAGAGAGAGAGAGA
Description: Variant Fabs were assessed for binding to synthetic poly-GA by SPR, using a Biacore T200 instrument (GE Healthcare). Synthetic biotin-8xGA was captured on a Biotin CAPture chip (GE Healthcare) at […] from solutions at 5 ng/mL in SPR buffer (10 mM HEPES, pH 7.2, 150 mM NaCl, 3.4 mM EDTA, 0.05% BSA, 0.005% surfactant P20) using reagents and protocols provided by the manufacturer. A series of solutions of variant antibody Fab fragments at increasing concentrations of 1.23, 3.7, 11, 33, and 100 nM in SPR buffer were injected over the biotin-8xGA coated sensor chip for 4 min each at 30 μL/min followed by buffer wash, and the binding response relative to a reference sensor with no biotin-8xGA was recorded during injections and for 15 min after the final injection. Data were analyzed with Biacore T200 Evaluation Software v3.0 using a 1:1 binding model.

T2 sequence (P02769 25-607 limits assumed): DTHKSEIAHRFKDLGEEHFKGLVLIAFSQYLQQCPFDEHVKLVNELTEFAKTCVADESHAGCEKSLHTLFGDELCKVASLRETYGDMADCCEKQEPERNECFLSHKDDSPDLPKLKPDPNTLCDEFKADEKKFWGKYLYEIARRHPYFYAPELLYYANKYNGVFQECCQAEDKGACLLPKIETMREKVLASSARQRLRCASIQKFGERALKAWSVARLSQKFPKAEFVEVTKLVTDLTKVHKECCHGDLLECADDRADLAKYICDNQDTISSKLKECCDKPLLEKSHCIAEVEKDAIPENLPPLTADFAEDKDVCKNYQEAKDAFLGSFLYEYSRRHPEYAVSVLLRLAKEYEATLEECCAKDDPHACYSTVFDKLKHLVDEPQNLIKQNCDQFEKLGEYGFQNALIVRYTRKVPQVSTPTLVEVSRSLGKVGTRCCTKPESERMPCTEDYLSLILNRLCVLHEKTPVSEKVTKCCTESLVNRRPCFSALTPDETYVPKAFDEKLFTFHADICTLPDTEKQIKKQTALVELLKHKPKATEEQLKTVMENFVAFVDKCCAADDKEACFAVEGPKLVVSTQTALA

Row | Binder | Kd (synthetic biotin-8xGA) | koff (synthetic biotin-8xGA) | kon (synthetic biotin-8xGA) | other results
1 | B1 |  |  |  | Kd ((GA)8 repeats): 4600 nM
2 | B2 |  |  |  | EC50 [1]: 0.16 nM; Kd [2]: 0.15 nM; koff [2]: 2.4e-05 s⁻¹; kon [2]: 163000 M⁻¹ s⁻¹; EC50 [3]: 0.23 nM; EC50 [4]: 0.3 nM; EC50 [5]: 13.8 nM; EC50 [6]: 0.29 nM; EC50 [7]: 0.26 nM
3 | B3 | 26 nM | 0.0059 s⁻¹ | 230000 M⁻¹ s⁻¹ | 
4 | B4 | 22 nM | 0.0044 s⁻¹ | 200000 M⁻¹ s⁻¹ | 
5 | B5 | 30 nM | 0.0076 s⁻¹ | 260000 M⁻¹ s⁻¹ | 
6 | B6 | 24 nM | 0.0044 s⁻¹ | 180000 M⁻¹ s⁻¹ | 
7 | B7 | 21 nM | 0.006 s⁻¹ | 290000 M⁻¹ s⁻¹ | 
8 | B8 | 28 nM | 0.0078 s⁻¹ | 270000 M⁻¹ s⁻¹ | 

Source: patent publication US20220153874A1 (NEURIMMUNE, published 2022)
